{
  "source": "patent US20150344888A1",
  "about": "(Genentech, published 2015)",
  "key": {"[1]": {"target": "T1, biotinylated USP30_cd (USP30 catalytic domain with C77A mutation) (Homo sapiens (Human), UniProt Q70CQ3 57-517, limits assumed, biotinylated (site not stated))", "T1 sequence": "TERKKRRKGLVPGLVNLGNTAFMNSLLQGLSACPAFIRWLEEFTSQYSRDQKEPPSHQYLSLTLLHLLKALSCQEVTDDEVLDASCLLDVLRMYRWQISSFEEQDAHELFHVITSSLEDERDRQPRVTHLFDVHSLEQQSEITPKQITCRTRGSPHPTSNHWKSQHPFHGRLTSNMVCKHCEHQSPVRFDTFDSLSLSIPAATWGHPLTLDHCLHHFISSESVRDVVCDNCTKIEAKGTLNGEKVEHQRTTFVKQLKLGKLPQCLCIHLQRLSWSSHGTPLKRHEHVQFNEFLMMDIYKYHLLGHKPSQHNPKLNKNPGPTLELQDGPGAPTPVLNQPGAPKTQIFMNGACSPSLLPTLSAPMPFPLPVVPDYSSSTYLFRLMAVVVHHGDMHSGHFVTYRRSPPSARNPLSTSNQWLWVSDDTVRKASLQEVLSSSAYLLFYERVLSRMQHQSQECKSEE", "assay": "spot phage ELISA on biotinylated USP30_cd", "source_text": "The selection identified peptide USP30_{—}3 and USP30_{—}8, which had moderate spot ELISA signals (signal/noise ratios of ˜5)."}, "[2]": {"target": "T2, UCHL3 (UniProt P15374 1-230)", "T2 sequence (looked up)": "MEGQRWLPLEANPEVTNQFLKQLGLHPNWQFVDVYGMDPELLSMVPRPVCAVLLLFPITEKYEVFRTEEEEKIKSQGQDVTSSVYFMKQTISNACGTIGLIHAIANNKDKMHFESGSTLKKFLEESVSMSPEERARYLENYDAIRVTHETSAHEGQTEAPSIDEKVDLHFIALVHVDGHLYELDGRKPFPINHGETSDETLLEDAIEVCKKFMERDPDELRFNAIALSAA", "assay": "cell-based or functional assay"}, "[3]": {"target": "T3, USP2 (UniProt O75604 259-605, limits assumed)", "T3 sequence (looked up)": "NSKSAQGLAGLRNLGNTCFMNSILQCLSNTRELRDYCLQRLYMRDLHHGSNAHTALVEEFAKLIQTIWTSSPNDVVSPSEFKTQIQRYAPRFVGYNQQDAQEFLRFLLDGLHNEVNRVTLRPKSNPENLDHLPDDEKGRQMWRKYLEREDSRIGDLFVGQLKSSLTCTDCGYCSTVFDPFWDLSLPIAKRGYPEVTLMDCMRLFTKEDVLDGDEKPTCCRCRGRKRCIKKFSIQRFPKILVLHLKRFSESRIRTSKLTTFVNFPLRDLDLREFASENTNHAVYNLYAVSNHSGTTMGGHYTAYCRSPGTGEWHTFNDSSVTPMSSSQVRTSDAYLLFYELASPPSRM", "assay": "cell-based or functional assay"}, "[4]": {"target": "T4, USP5 (UniProt P45974 1-858, limits assumed)", "T4 sequence (looked up)": "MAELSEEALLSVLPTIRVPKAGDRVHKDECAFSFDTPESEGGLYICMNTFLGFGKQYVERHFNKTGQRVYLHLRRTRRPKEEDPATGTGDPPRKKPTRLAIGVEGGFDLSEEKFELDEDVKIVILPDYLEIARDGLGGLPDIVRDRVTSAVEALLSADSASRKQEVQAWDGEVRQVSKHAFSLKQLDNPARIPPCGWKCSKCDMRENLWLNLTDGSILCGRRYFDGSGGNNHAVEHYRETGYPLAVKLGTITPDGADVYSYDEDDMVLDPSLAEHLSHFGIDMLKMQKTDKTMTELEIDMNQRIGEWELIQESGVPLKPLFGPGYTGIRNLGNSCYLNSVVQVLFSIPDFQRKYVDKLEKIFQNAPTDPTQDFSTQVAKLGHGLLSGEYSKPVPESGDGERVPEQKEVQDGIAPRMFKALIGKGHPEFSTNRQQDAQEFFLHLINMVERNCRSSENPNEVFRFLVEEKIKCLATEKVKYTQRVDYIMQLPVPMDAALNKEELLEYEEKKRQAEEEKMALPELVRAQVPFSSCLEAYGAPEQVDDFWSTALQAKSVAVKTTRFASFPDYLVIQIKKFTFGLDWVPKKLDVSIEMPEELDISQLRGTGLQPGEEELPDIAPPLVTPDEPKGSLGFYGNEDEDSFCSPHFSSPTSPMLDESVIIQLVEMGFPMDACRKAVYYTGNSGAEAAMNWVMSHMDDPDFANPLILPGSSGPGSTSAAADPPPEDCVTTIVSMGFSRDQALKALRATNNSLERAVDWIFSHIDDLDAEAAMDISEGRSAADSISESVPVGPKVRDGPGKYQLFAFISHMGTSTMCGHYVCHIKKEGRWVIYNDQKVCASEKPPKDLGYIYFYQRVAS", "assay": "cell-based or functional assay"}, "[5]": {"target": "T5, USP30 (active enzyme in the ubiquitin-AMC assay) (Homo sapiens (Human), UniProt Q70CQ3 57-517, limits assumed)", "T5 sequence": "T1 sequence with A21C", "assay": "cell-based or functional assay"}},
  "note": "Substitutions are numbered along the chain they refer to. Values joined by “and” are separate entries in the source; they are usually repeats but may differ in a detail not shown here. Equal entries are not always repeated. Where no end group is shown, it is not given here.",
  "data": [
    {"binder": "PLYCFYDLTYGYLCFY (also called pep3; parent USP30-3)", "note": "[peptide USP30-3]", "values": [
      {"measurement": "signal/noise ratio (spot ELISA)", "setting": "[1]", "result": "~5"},
      {"measurement": "IC50, inhibition of ubiquitin-AMC cleavage (initial rate, fluorescence)", "setting": "[2]", "result": "> 200", "unit": "µM"},
      {"measurement": "IC50, inhibition of ubiquitin-AMC cleavage (initial rate, fluorescence)", "setting": "[3]", "result": "~100 µM and > 200 µM"},
      {"measurement": "fold higher IC50 than for USP30", "setting": "[3]", "result": "> 10", "unit": "fold"},
      {"measurement": "IC50, inhibition of ubiquitin-AMC cleavage (initial rate, fluorescence)", "setting": "[4]", "result": 49.4, "unit": "µM"},
      {"measurement": "fold higher IC50 than for USP30", "setting": "[4]", "result": "> 6", "unit": "fold"},
      {"measurement": "IC50, inhibition of ubiquitin-AMC cleavage (initial rate, fluorescence)", "setting": "[5]", "result": 8, "unit": "µM"}
    ]},
    {"binder": "VSRCYIFWNEMFCDVE (not fully specified (bridges); cysteine pairing not given here, also called pep8)", "note": "[peptide USP30-8]", "values": [
      {"measurement": "signal/noise ratio (spot ELISA)", "setting": "[1]", "result": "~5"}
    ]}
  ]
}
